Measured values taken from patent US20140308685A1 (SHINO TEST, published 2014).

How the values were obtained:
[1] = target: T1, periostin (S2 recombinant periostin protein tagged with V5/His) (Homo sapiens (Human), UniProt Q15063 22-836, limits assumed); assay: ELISA on immobilized antigen (5 ug/mL), A405; bound if difference to control well is 0.2 or more
T1 construct: also called osteoblastic specific factor 2; OSF2
T1 sequence: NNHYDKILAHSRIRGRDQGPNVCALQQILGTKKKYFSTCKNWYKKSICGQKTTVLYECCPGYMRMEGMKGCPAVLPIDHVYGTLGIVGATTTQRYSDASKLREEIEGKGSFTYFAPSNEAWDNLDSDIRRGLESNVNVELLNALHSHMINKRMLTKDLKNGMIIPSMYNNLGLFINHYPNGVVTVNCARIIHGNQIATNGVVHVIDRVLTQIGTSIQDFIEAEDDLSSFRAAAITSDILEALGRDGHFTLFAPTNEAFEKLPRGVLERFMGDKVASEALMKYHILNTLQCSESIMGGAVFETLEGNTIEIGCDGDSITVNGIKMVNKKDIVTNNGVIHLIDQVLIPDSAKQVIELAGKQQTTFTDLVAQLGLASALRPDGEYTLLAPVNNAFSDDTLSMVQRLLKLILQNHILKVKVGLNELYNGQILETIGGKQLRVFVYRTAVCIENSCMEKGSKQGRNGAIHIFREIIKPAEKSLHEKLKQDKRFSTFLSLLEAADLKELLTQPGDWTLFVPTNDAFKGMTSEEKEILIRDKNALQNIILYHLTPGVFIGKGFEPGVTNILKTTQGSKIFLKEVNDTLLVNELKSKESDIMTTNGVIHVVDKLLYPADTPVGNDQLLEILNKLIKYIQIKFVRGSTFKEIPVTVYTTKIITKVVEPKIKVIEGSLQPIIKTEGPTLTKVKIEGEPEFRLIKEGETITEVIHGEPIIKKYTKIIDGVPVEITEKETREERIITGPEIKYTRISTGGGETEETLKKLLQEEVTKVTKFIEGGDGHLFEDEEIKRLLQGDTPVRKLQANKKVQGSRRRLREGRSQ
Protocol: (8) Subsequently, the absorbance in each well of the microtiter plate in (7) at 405 nm was measured with a spectrophotometer.
Based on the measurement results of the absorbance, if the difference between the obtained measured values of absorbance in the well immobilizing periostin or a partial-length periostin and the measured values of absorbance in the control well (into which phosphate-buffered saline was poured instead of periostin or partial-length periostins) is 0.2 or more, an anti-periostin monoclonal antibody was determined to have bound to the periostin or the partial-length periostin immobilized to the well of the microtiter plate.

[2] = target: T2, partial-length periostin (R4 region) (Homo sapiens (Human), UniProt Q15063 496-631, limits assumed); assay: ELISA on immobilized antigen, POD-labeled anti-mouse IgG, A405
T2 sequence: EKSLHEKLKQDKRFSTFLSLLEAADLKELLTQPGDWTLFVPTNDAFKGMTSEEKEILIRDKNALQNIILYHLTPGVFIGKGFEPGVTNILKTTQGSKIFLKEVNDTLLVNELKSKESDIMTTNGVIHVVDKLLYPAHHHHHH

[3] = target: T3, partial-length periostin (R2 region) (Homo sapiens (Human), UniProt Q15063 235-378, limits assumed); assay: as above
T3 sequence: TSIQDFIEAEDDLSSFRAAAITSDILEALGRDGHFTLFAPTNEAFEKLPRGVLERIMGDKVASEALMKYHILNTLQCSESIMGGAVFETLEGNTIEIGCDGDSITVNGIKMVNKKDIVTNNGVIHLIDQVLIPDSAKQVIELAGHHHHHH

[4] = target: T4, partial-length periostin (C-terminal region) (Homo sapiens (Human), UniProt Q15063 632-836, limits assumed); assay: as above
T4 sequence: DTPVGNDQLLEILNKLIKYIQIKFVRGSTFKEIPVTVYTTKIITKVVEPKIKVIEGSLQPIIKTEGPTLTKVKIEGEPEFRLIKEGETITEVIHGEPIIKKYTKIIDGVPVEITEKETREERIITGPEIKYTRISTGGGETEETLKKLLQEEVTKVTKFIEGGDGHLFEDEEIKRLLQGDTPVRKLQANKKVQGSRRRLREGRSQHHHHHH

[5] = target: T5, partial-length periostin (EMI region) (Homo sapiens (Human), UniProt Q15063 22-110, limits assumed); assay: as above
T5 sequence: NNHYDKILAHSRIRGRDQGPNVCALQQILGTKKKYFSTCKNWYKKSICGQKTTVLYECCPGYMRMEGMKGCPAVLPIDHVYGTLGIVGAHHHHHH

[6] = target: T6, partial-length periostin (R1/R2 regions) (Homo sapiens (Human), UniProt Q15063 111-378, limits assumed); assay: as above
T6 sequence: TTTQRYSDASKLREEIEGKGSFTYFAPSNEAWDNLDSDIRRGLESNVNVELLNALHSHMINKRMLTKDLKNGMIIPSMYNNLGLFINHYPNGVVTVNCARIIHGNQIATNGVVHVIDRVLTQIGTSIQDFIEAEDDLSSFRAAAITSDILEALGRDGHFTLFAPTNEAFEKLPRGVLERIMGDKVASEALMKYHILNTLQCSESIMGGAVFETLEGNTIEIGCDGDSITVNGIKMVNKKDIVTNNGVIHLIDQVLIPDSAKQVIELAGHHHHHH

Measured: binding result

B1: anti-periostin monoclonal antibody (SS19D) (antibody, V domains shown)
VH: QVQLQQPGSELVKPGASVKLSCKASGYTFTSYWMHWVKQSPGQGLEWIGEINPSNGRTNYNEKFKTKATLTVDKSSSTAYMQLNSLTSEDSAVYYCVRGDEGFAYWGQGTLVTVSA
VL: NIVLTQSPASLAVSLGQRATISCSASESVDSYGRSFIHWFQQKPGQPPKLLIYLASYLESGVPARFSGSGSRTDFTLTIDPVEADDAATYYCHQNNEDPPTFGGGAKLEIKR
binds: [1]
no binding: all other assays above
